Measurements reported in the supplement of paper PMC12783771.
± gives the standard deviation of the averaged measurements.

B1: library; numbered along this chain (parent)
chain: MNIQIGELAKRTACPVVTIRFYEQEGLLPPPGRSRGNFRLYGEEHVERLQFIRHCRSLDMPLSDVRTLLSYRKRPDQDCGEVNMLLDEHIRQVESRIGALLELKHHLVELREACSGARPAQSCGILQGLSDCVCDTRGTTAHPSD

Key:
[1] = variants of: B1; test: sfGFP reporter fluorescence (15 h) (µM FITC); higher = higher leak; conditions: library round: Round 1; ligand: none
Experimental: (§1)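 Cell-free biosensing: 1 µL Echo-assembled CFE reactions with linear PbrR variant templates (5 nM) and pPbrR-sfGFP reporter, with 1 µM Pb, 30 µM Zn or no ligand; endpoint sfGFP fluorescence after 15 h at 30 °C calibrated as µM FITC. Round 1 ML-predicted PbrR mutants; 3 biological replicates.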

[2] = variants of: B1; test: sfGFP reporter fluorescence (15 h) (µM FITC); higher = stronger transcriptional activation; conditions: library round: Round 1
Experimental: as §1

| Variant | sfGFP reporter fluorescence [1] | sfGFP reporter fluorescence ([2]; ligand: 1 µM Pb) | sfGFP reporter fluorescence ([2]; ligand: 30 µM Zn) |
| --- | --- | --- | --- |
| L58F M60L P61N | 0.091 ± 0.002 | 0.191 ± 0.051 | 0.61 ± 0.095 |
| K104V D135A | 0.0696 ± 0.0011 | 0.123 ± 0.0063 | 0.678 ± 0.073 |
| M84A D131H | 0.0584 ± 0.0011 | 0.0712 ± 0.002 | 0.463 ± 0.061 |
| E109A R111L | 0.06463 ± 0.00021 | 0.0688 ± 0.0022 | 0.1654 ± 0.00092 |
| P61T I97N K104V | 0.0652 ± 0.0013 | 0.0689 ± 0.0055 | 0.169 ± 0.017 |
| N83S E94D K104A | 0.05986 ± 0.00042 | 0.0734 ± 0.0052 | 0.422 ± 0.014 |
| L129V D135A | 0.0641 ± 0.00097 | 0.0619 ± 0.003 | 0.0639 ± 0.0027 |
| P61N K104V L107E | 0.0663 ± 0.0026 | 0.0646 ± 0.0037 | 0.06805 ± 0.00056 |
| R33A G36L | 0.0634 ± 0.0035 | 0.0567 ± 0.0051 | 0.0604 ± 0.00092 |
| E43C K104V | 0.065 ± 0.0013 | 0.0922 ± 0.0039 | 0.162 ± 0.011 |
| N83S E112L | 0.0612 ± 0.0034 | 0.0759 ± 0.0016 | 0.152 ± 0.006 |
| D131T D135Y | 0.074 ± 0.0013 | 0.0933 ± 0.014 | 0.801 ± 0.026 |
| D131T D135A | 0.0636 ± 0.0011 | 0.08075 ± 0.00021 | 0.365 ± 0.0092 |
| L85Y K104V | 0.0606 ± 0.0011 | 0.0629 ± 0.0018 | 0.223 ± 0.011 |
| N83T D131M D135A | 0.0656 ± 0.0024 | 0.0837 ± 0.0023 | 0.205 ± 0.011 |
| R111I C134P | 0.0589 ± 0.0022 | 0.0683 ± 0.0031 | 0.228 ± 0.0041 |
| D64K C114I | 0.05986 ± 0.00056 | 0.0594 ± 0.0011 | 0.0599 ± 0.0022 |
| K10A V46T C134T | 0.0627 ± 0.0013 | 0.0699 ± 0.0061 | 0.226 ± 0.021 |
| Q127A D135P | 0.0621 ± 0.0012 | 0.0781 ± 0.0053 | 0.244 ± 0.021 |
| D135A P143M | 0.0655 ± 0.002 | 0.07977 ± 0.00056 | 0.405 ± 0.014 |
| Q127S | 0.0614 ± 0.00076 | 0.0649 ± 0.0047 | 0.118 ± 0.0086 |
| P61D D64K | 0.168 ± 0.0064 | 0.454 ± 0.038 | 1.44 ± 0.17 |
| P61N D135R | 0.0732 ± 0.00085 | 0.164 ± 0.0087 | 0.708 ± 0.075 |

| Variant | sfGFP reporter fluorescence [1] | sfGFP reporter fluorescence ([2]; ligand: 1 µM Pb) | sfGFP reporter fluorescence ([2]; ligand: 30 µM Zn) |
| --- | --- | --- | --- |
| V16N L58A | 0.0597 ± 0.0018 | 0.0608 ± 0.00073 | 0.0591 ± 0.0024 |
| N83T L85R | 0.061 ± 0.0026 | 0.0607 ± 0.0035 | 0.0601 ± 0.0029 |
| D64T N83T R111I | 0.0783 ± 0.0017 | 0.156 ± 0.014 | 1.12 ± 0.13 |
| D64K R111L | 0.06487 ± 0.00064 | 0.154 ± 0.013 | 0.898 ± 0.071 |
| D64K R111D | 0.0666 ± 0.00092 | 0.164 ± 0.011 | 0.682 ± 0.097 |
| P61N D131A P143W | 0.0886 ± 0.0011 | 0.134 ± 0.023 | 0.59 ± 0.051 |
| N83I K104V | 0.0628 ± 0.0011 | 0.356 ± 0.026 | 0.0679 ± 0.0048 |
| N83T L107C C114R G128M | 0.063 ± 0.0015 | 0.0605 ± 0.0029 | 0.06108 ± 0.00021 |
| E43Y P61N | 0.0713 ± 0.0038 | 0.139 ± 0.0038 | 0.822 ± 0.12 |
| N83T G128I | 0.059 ± 0.00064 | 0.133 ± 0.011 | 0.387 ± 0.038 |
| V108E E109H | 0.0605 ± 0.0011 | 0.0687 ± 0.003 | 0.224 ± 0.01 |
| M60L D64K P143A | 0.3527 ± 0.0018 | 0.945 ± 0.11 | 2.4 ± 0.12 |
| N83T V108L D131C P143T | 0.06365 ± 0.00056 | 0.0753 ± 0.002 | 0.0975 ± 0.0026 |
| M84A I97G | 0.05986 ± 0.00042 | 0.0617 ± 0.0011 | 0.218 ± 0.017 |
| G128H D131C | 0.0654 ± 0.0018 | 0.0887 ± 0.01 | 0.187 ± 0.02 |
| M60L D131C | 0.0866 ± 0.0039 | 0.248 ± 0.025 | 0.694 ± 0.081 |
| L107C G128I D135S | 2.64 ± 0.069 | 3.9 ± 0.36 | 4.376 ± 0.041 |
| D131C D135A | 0.0605 ± 0.0013 | 0.0742 ± 0.0019 | 0.221 ± 0.02 |
| D87S | 0.0624 ± 0.0015 | 0.0699 ± 0.0015 | 0.162 ± 0.017 |
| P61N D64A | 0.0855 ± 0.0012 | 0.183 ± 0.013 | 1.07 ± 0.098 |
| P61N D64T | 0.345 ± 0.02 | 1.06 ± 0.11 | 3.56 ± 0.13 |
| M60L P61N D64K K104T | 0.137 ± 0.0056 | 0.446 ± 0.019 | 1.18 ± 0.11 |
| D64A K104C | 0.115 ± 0.002 | 0.342 ± 0.031 | 1.25 ± 0.076 |

| Variant | sfGFP reporter fluorescence [1] | sfGFP reporter fluorescence ([2]; ligand: 1 µM Pb) | sfGFP reporter fluorescence ([2]; ligand: 30 µM Zn) |
| --- | --- | --- | --- |
| M60L D64K K104V D131C | 0.504 ± 0.028 | 1.29 ± 0.22 | 1.91 ± 0.2 |
| D64G N83S D135A | 0.0656 ± 0.00097 | 0.0915 ± 0.002 | 0.292 ± 0.0096 |
| D131Y D135P | 0.0677 ± 0.0011 | 0.0826 ± 0.0037 | 0.272 ± 0.021 |
| E109L D135P | 0.0655 ± 0.0031 | 0.102 ± 0.0041 | 0.497 ± 0.027 |
| P61N D64K N83T | 0.0684 ± 0.00076 | 0.232 ± 0.045 | 0.635 ± 0.034 |
| N83T L107C G128I | 0.195 ± 0.0097 | 0.702 ± 0.17 | 1.75 ± 0.2 |
| D64T D131C | 0.143 ± 0.0074 | 0.359 ± 0.033 | 1.51 ± 0.07 |
| N83T D131S | 0.0602 ± 0.0017 | 0.0836 ± 0.0031 | 0.146 ± 0.016 |
| N83T D131A | 0.0649 ± 0.0029 | 0.0917 ± 0.0025 | 0.169 ± 0.016 |
| N83T D131H | 0.0632 ± 0.0011 | 0.0836 ± 0.0011 | 0.14 ± 0.012 |
| G128L C134E | 0.0749 ± 0.0015 | 0.135 ± 0.0039 | 1.36 ± 0.11 |
| E109H D135A | 0.0629 ± 0.00092 | 0.0832 ± 0.011 | 0.254 ± 0.02 |
| R111L G128I | 0.0666 ± 0.0024 | 0.0985 ± 0.0091 | 0.528 ± 0.024 |
| R111L G128P | 0.0584 ± 0.0015 | 0.0568 ± 0.0028 | 0.0542 ± 0.0045 |
| D64K I90C K104V | 0.0914 ± 0.0024 | 0.341 ± 0.073 | 0.959 ± 0.086 |
| P61N D64T E112I | 0.0771 ± 0.0039 | 0.153 ± 0.018 | 0.942 ± 0.03 |
| L107C G124A G128M | 0.371 ± 0.0094 | 1.13 ± 0.051 | 2.08 ± 0.19 |
| G32S C55M | 0.0668 ± 0.0018 | 0.0712 ± 0.0065 | 0.101 ± 0.0013 |
| M60L P61L | 0.0689 ± 0.00037 | 0.081 ± 0.0019 | 0.156 ± 0.015 |
| D64A D135R | 0.0876 ± 0.00097 | 0.18 ± 0.034 | 1.55 ± 0.021 |
| L107C R111L G128M | 0.333 ± 0.022 | 1.15 ± 0.33 | 2.19 ± 0.32 |
| V16C K104V | 0.0623 ± 0.0024 | 0.0778 ± 0.0038 | 0.0911 ± 0.012 |
| N83T K104R D135K | 0.0682 ± 0.00097 | 0.0845 ± 0.0083 | 0.149 ± 0.0056 |

| Variant | sfGFP reporter fluorescence [1] | sfGFP reporter fluorescence ([2]; ligand: 1 µM Pb) | sfGFP reporter fluorescence ([2]; ligand: 30 µM Zn) |
| --- | --- | --- | --- |
| L107N G128M | 0.0744 ± 0.0042 | 0.225 ± 0.02 | 0.917 ± 0.088 |
| D64I R111L | 0.0903 ± 0.0015 | 0.254 ± 0.032 | 1.39 ± 0.12 |
| N83I I97H | 0.0618 ± 0.0012 | 0.0654 ± 0.0032 | 0.0625 ± 0.003 |
| P61E D64K D131C | 0.108 ± 0.0035 | 0.243 ± 0.036 | 0.676 ± 0.084 |
| D64K N83T R111L | 0.0651 ± 0.0024 | 0.125 ± 0.0074 | 0.532 ± 0.049 |
| N83R D135A | 0.0635 ± 0.0017 | 0.0787 ± 0.005 | 0.0875 ± 0.0015 |
| N83T L110W | 0.0601 ± 0.0015 | 0.0593 ± 0.0024 | 0.0597 ± 0.00097 |
| L62I K104V | 0.072 ± 0.0011 | 0.109 ± 0.0031 | 0.417 ± 0.022 |
| P61N L68F I90T | 0.0702 ± 0.0011 | 0.0958 ± 0.017 | 0.435 ± 0.044 |
| N83S K104V | 0.064 ± 0.0016 | 0.121 ± 0.0056 | 0.405 ± 0.015 |
| N83T K104V L107I | 0.0623 ± 0.0016 | 0.0753 ± 0.0068 | 0.112 ± 0.0052 |
| P61N V108M R111C | 0.0735 ± 0.00085 | 0.0925 ± 0.013 | 0.237 ± 0.0083 |
| D64I D135T | 0.164 ± 0.02 | 0.514 ± 0.04 | 1.63 ± 0.29 |
| L126I D131C | 0.0635 ± 0.0019 | 0.0635 ± 0.0022 | 0.0699 ± 0.0022 |
| D64K N83F | 0.0616 ± 0.0024 | 0.198 ± 0.035 | 0.143 ± 0.01 |
| N83T D135F | 0.0665 ± 0.00076 | 0.0911 ± 0.014 | 0.435 ± 0.062 |
| N83T D135A | 0.06316 ± 0.00056 | 0.0768 ± 0.0015 | 0.152 ± 0.0032 |
| N83T D135P | 0.0602 ± 0.0037 | 0.0771 ± 0.00092 | 0.106 ± 0.0033 |
| P61N C134M | 0.102 ± 0.0054 | 0.233 ± 0.0043 | 1.53 ± 0.14 |
| P61N C134V | 0.095 ± 0.0057 | 0.189 ± 0.051 | 1.26 ± 0.21 |
